According to patent US20130095092A1:

Biological target: Mannose 6-phosphate receptor (M6P receptor) on human MPS IIIB (NaGlu deficient) fibroblasts (human), P11717
Experiment: cell-based or functional assay

Chain of Mannose 6-phosphate receptor (M6P receptor) on human MPS IIIB (NaGlu deficient) fibroblasts (human), P11717 (P11717 41-2491): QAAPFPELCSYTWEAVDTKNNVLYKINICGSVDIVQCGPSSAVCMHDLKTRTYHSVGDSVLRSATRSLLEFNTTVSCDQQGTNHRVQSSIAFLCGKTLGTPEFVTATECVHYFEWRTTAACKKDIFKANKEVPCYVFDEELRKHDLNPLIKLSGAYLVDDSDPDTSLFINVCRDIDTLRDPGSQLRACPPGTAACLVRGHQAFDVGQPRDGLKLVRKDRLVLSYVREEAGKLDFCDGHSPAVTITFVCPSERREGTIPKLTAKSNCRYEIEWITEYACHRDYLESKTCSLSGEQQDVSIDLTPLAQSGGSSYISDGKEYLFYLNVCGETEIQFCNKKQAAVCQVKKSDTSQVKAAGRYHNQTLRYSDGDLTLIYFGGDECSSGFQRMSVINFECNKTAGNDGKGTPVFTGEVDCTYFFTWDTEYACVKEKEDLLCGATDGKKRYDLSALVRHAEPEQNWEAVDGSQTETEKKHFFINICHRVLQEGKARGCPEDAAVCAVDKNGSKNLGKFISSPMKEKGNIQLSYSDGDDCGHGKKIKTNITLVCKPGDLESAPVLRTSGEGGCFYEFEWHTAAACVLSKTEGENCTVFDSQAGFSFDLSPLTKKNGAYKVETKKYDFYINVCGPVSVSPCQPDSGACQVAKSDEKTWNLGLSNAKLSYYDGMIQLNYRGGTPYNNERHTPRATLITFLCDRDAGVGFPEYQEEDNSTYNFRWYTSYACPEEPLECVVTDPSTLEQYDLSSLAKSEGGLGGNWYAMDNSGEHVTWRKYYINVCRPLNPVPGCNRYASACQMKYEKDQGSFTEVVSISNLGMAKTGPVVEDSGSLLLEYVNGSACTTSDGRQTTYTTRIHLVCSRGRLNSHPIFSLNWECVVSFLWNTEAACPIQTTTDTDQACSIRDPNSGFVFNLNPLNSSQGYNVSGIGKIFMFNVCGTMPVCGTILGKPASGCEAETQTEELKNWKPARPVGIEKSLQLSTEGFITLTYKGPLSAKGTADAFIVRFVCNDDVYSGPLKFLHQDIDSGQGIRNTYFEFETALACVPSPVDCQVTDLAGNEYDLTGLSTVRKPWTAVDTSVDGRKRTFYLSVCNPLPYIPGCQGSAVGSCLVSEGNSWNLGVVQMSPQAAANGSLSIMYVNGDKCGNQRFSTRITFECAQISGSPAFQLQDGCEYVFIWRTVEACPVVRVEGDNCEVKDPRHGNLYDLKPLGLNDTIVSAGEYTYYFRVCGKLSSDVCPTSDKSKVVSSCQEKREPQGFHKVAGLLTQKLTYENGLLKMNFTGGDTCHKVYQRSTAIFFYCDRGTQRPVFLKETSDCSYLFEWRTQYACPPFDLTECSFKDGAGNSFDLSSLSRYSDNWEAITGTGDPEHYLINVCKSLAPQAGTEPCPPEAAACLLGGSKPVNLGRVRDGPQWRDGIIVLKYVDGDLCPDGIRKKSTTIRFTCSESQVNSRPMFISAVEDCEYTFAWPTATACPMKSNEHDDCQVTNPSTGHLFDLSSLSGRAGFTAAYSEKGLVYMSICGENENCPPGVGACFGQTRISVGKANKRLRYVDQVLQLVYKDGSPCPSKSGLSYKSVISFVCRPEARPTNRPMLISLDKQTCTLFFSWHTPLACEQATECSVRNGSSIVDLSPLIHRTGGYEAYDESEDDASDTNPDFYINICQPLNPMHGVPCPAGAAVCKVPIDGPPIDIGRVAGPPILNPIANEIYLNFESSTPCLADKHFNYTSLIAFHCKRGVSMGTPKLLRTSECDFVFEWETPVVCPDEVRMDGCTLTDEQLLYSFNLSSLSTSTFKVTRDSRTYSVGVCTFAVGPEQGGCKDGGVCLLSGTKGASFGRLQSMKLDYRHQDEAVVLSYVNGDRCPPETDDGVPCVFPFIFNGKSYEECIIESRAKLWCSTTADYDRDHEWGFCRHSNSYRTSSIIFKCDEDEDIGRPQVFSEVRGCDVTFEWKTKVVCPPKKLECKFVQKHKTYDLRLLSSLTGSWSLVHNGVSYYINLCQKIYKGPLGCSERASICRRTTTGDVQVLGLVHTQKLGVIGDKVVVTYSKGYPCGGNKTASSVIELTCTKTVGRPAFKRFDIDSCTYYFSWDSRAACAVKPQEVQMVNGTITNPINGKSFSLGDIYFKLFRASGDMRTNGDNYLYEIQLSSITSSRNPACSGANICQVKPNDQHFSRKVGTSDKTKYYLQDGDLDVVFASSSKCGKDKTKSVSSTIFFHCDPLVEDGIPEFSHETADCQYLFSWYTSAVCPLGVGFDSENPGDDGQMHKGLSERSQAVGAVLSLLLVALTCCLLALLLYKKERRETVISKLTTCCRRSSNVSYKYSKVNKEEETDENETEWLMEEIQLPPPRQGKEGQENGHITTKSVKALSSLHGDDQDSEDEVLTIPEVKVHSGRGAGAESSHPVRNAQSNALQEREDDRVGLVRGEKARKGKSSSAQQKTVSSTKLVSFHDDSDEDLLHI

- M6P inhibition assay: concentration of free M6P monosaccharide that inhibits uptake of 30 µg/mL rhNaGlu into MPS IIIB fibroblasts (enzymatic activity): > 0.03 mM
- M6P inhibition assay: inhibition of cellular uptake of 30 µg/mL rhNaGlu into MPS IIIB fibroblasts by 1 mM free M6P (% inhibition of uptake): > 90
- NaGlu activity in MPS IIIB fibroblasts after 24 h uptake of rhNaGlu, relative to wild-type fibroblasts (% of wild-type activity): 50
B1: recombinant human N-acetyl-alpha-D-glucosaminidase (rhNaGlu) produced from a transgenic avian (Gallus), P54802 24-743 (enzyme)
chain: DEAREAAAVRALVARLLGPGPAADFSVSVERALAAKPGLDTYSLGGGGAARVRVRGSTGVAAAAGLHRYLRDFCGCHVAWSGSQLRLPRPLPAVPGELTEATPNRYRYYQNVCTQSYSFVWWDWARWEREIDWMALNGINLALAWSGQEAIWQRVYLALGLTQAEINEFFTGPAFLAWGRMGNLHTWDGPLPPSWHIKQLYLQHRVLDQMRSFGMTPVLPAFAGHVPEAVTRVFPQVNVTKMGSWGHFNCSYSCSFLLAPEDPIFPIIGSLFLRELIKEFGTDHIYGADTFNEMQPPSSEPSYLAAATTAVYEAMTAVDTEAVWLLQGWLFQHQPQFWGPAQIRAVLGAVPRGRLLVLDLFAESQPVYTRTASFQGQPFIWCMLHNFGGNHGLFGALEAVNGGPEAARLFPNSTMVGTGMAPEGISQNEVVYSLMAELGWRKDPVPDLAAWVTSFAARRYGVSHPDAGAAWRLLLRSVYNCSGEACRGHNRSPLVRRPSLQMNTSIWYNRSDVFEAWRLLLTSAPSLATSPAFRYDLLDLTRQAVQELVSLYYEEARSAYLSKELASLLRAGGVLAYELLPALDEVLASDSRFLLGSWLEQARAAAVSEAEADFYEQNSRYQLTLWGPEGNILDYANKQLAGLVANYYTPRWRLFLEALVDSVAQGIPFQQHQFDKNVFQLEQAFVLSKQRYPSQPRGDTVDLAKKIFLKYYPRWVAGSW
modifications: here or on the partner: glycosylated; glycans carry mannose-6-phosphate (3.2 moles of M6P per mole of protein), glycosylation sites not stated
